# According to the domain aggregation screens of Martell et al. (2025):
# Assay: soluble fraction after stress (log2 fold change); higher = more stays soluble; pooled small domains, quantitative proteomics
# Details: stress: 50 degC
# Summary of the method: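 Quantitative proteomics served as the high-throughput read-out for pooled custom libraries of small protein domains. Each was stressed at 50°C. Aggregation propensity is expressed as the base-two log fold change in soluble protein after stress. A higher value means a larger share of the protein remains in solution.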
row,Sequence,soluble fraction (log2)
1,HMKQEFEMGLPNGVGEQMLAHAIEKFDVKLEHSEFGPKLIGTYEELEKAKVFLYEAIEARLNQLE,-0.0154
2,HMSQIILSARSGHAALRHRLGELGYTFADKEFDDIYERFLEVADQKKEVYDEDLESIVQERQRD,0.0537
3,HMDIESREAWVDASGMGVRLDRWLTQLAPEFSRNHLQSLIERGAVRVDGQPALVASRKLRIGQQVAVSLIP,-0.868
4,HMNLQAYQSVLDKLNEEYGTTFRFPTEEELHEVGLTNTVDPRTATVSATEFEKYMRPIAERISQANL,-0.00884
5,HMGPVPLASAADMEKFYSHLQQVLDEVDFKDRTGSGHLMARLRRLFQRTVLDQNEINILRGILMAVQGRR,-2.85
6,HMDPALSPAEQKIWDLLAAGETHIDDLVRASGLPVATVNSALVMMEMKEVISQVAAKTYRRNRRN,-0.0324
7,HMEENNIVIYITGAVKKEGIYEIKENSRISDAIEAAGGLLENANIKDINLAYIIEDGVKIYIPTNEEVNK,-0.192
8,HMTEKIEWYKEVLELEPNSKVFFPLARMLAEEQRFDEAVAVLEHGLERHGEFLEARLFFIELLHET,-3.69
9,HMPAVTEQTRANLRTAFWSLYREKPTSKITVREITDRAGYNRATFYLYYRDVYDLFEQIEQEIL,-2.36
10,HMSSYTQEDVRSGILYMAQLKPRNIEEFVSTLAFSKDDIMDNLSFLVDEGFLKFDADTDTYFNPVPL,-0.214
11,HMAVLGIQPVFHRSTGQTVYKSSVNTAKGRVYLGLFPTLTEALEIKLKYMQEHGHTKGITNLTNKLKEL,-1.17
12,HMRDDAIQQGREIVERELHRLDLAYTTLTDVLAKLEYEKLDDLYAAVGFGIRSPHSVAAAALQVERDKA,-0.569
13,HMIVIMKAKAEEEDVNRVIDTIQSLGLRTQLNLGAERMVVAVIGDISKIGEDNFFRIRAMKGVENTVFVSK,-0.396
14,HMQTLGADLRALRKARGLTLTDMAETLGRSVGWLSQVERDLSEPSITDLRHMARTLGVSVSMLFS,-1.41
15,HMDQQTKFKTALAALAASAETKDRKLTKADVKEFLEDMDLGEEQMKLVYAYLASKHIHVEGAE,0.178
16,HMTSKIIIGDSYSKINKLLGEPENMKKRKFLDNEYLMVLYSINKKNYRLYFKDNILFELEDI,-0.941
17,HMTTLTPIGKMKGEIDGDFEAFYLAVDKDGQVYLNRDPDYSENRYEKSRGWELVTREQLAVYEKELHFIP,-0.406
18,HMATTIEAPMPGKILDVKVNPGQAVSYGQVVLTMEAMKMETEIVAPADGTVASVLVKSGDMVETGAALVSL,0.0867
19,HMGRKPVSPEIVERVLQLAKSNPDWGYEHIAGTMRYLGYNVSATTIRHILEANGIVPDPERRL,-0.128
20,HMNPDTERIREFVAVSLKNRKVATSGEIQNMIVKQFKNFKLKSHGYSNMKSFLSSIDKIQLNSNGKYSLK,-0.355
21,HMGVGERIKARRKEIGLSAEQVAKELGVSPATVYRYESNDIMNMRIDKLEPIAKALHTTPAYLMGWE,-0.0318
22,HMPTNVYSIIGKEGIVLESIDNLNSTGKVKVNGELWSAISDSNIEKGETIKVLSVNGVKLKVEKVN,0.0885
23,HMQALDETTVSRIRQKAAARNLLLKVLAGQLGVARPTLSNVLARREAPSAALAARIRAFLDSP,-0.894
24,HMTTELDTTAITPIIQKVLKANPDVVAKYKAGQQQVIGFLMGQVMRELSTKPNPKELQSLIVAQLQQA,0.0755
25,HMFPTLNEDEQTIVSALQKINDQPINTLSIHTALPIPRLTSLLFQLEIKGVIKQLAGGTYHVL,-0.427

row,Sequence,soluble fraction (log2)
1,HMPSQEQSDKNAAMAFLPVIVKNALNGKGLKISDDWKAAVNTALAQYPLVNKFFNADSPEVTELVMGL,-0.0489
2,HMENKTGEVTVREDSALTLRQGPGTNYEKVGQAYRGDRVDVLEEQNGWYKVKTYDGKEAWASSSYISIV,0.454
3,HMDVLFGNRLRQLLDERNISQAHFADRIGVSRSRMNNYVAQRSEPDYATLIRIANTLDTSIDFLLGKS,-1.93
4,HMLPLLEYLDPFTGKKTYTYLNPDTQHPIFTYYSYQDDKTGRTAYSYIDPLTGKAVNSDEPPMDILYD,-0.441
5,HMFPQVEVQLIYSYKSDRILNKMLKEFNVVILNQVFKDDILTSFHMNYSLVNQLITKIKSYPDISYKIIN,-1.5
6,HMSNLGLQIVRTLTDAGKGVVFITHKLKEALTIADRINVLRRGKVVGDADPKTASESQIAEMMVGRPVQL,-0.144
7,HMGRDWKTDLLNLATARGWGDVSYEVTGEGPDHARVYTAVAIVANQKTGTGVGPSKKEAERLAAEQAYRML,-0.142
8,HMRYNPETTAGRRGLIIKMLDEYGQVNVNELSRYFNVSEVTVRNDLAYLERKNLLIRARGGAIKTE,-0.941
9,HMQSFIEELLPVVDNFERSLAVVDPSDEIKNFLKGYEMIYNQLMEVLKSQGVEVIKTEGEEFDPNFHQA,0.0366
10,HMTKASYKITTPSGVNVREGAGKRYAVRKAYPKGKTVTVTQTKEVNGNLWGKTSDGWFAIKYQGAVYASA,-0.97
11,HMGMAETTARILQLLGLLQSRRGWSGQELAERLGVTTRSVRRDVERLRELGYPVHASAGHGGGYQLGA,-1.8
12,HMLSKEERRSQLLDLGVRLLSTRSLDELSIDLLAEEAGISRGLLYHYFGNKHDFHEAVVRRAADDLI,-1.75
13,HMGVSEIGSPAWMESKLVTLASYEGSLDGLRTLWGGVAQHRARIPVESWDRLFAAKEEGKARLVKLGRT,-1.19
14,HMPQVALAIDEMKRELASPDIVKTLLATTFKGLSEVNMRQAMLDGMIQGHTIADFFKKDVYAIPFGSGYSL,0.0921
15,HMTDIDATSIERAVAKRRHFFLSNIQDLTMKMARRLIEKDLGLAPKHLDAAPFKTRITELVDAVIALGD,-0.165
16,HMRQKTTFFATESFELPNGEKVEEGQIFRLNDGAFNIAEQQGITRFLTSEANYGRMIAANAEVEKAKLDA,0.268
17,HMLERPLKLKSHYVSTIYEKVAVQYSEGEEKKSVMGTLIEVNQDTIVLDDRGTIIEIPFKSITRAKTVF,-0.245
18,HMIKKAILPVAGLGTRFLPASKSIPKEMVTVVDRPAIEYVVREAVEAGIEQIILVTHSSKASIENYFDR,-0.187
19,HMKHSEAIELGKRMLSQALQDVSLVLKKIPEERLQAVAAELNLKTPDELFEKIGLGERLAALVARRLLP,-0.207
20,HMEKEKIKEALIGYFEAEPEEKFTVQELADKLKMNKAGQFNFVVQAVAQLEHDKVITLDDEGNFSLVRHE,-0.623
21,HMENMRLILASNLRRIREERRLSLNKVSELTGVSKSMLGQIERGESNPTLQTVWKIANGLRVSLTDLTEVP,-0.0326
22,HMELEDTYTKNLDASLARLDEYQASKGLTDEQVDEVINSLIADAENIIMGVFTPELIDSKLKAMNYDQDV,0.156
23,HMGENTIFSGVLGEGRLDSALAHALPQFSRARIQGLIAEDAVLIAGKATNDAASKKFAGQSFELSVPAPRP,0.105
24,HMYSSIIGIAFTRAENKPAAPTGGSYSNPHPVDGNWKAAPYDGDGNLWYSIRHFNENVDIQDREWSDPTLG,-0.24
25,HMELLTYREMDVLNLLDQRLTNKEIAHALGISTETVRQHTVNLFRKLNVDNRRQAIVVARSLGYIGTPT,-1.2

row,Sequence,soluble fraction (log2)
1,HMKELTPEQLQHNWNNLRQFIDVNFSGDRLGGLNKMYDYFEERMMFAPASGKQHYHNAFAGGYVEHVMHV,0.335
2,HMIKRDLAFSEFIAEVKAGQVREVTIKGNSISGNLNDGREFNTYAPNDPNLVKTLTDQGVLIRAIPLE,-0.0273
3,HMDEMPVEFVKISIKAGHPWENRKIKDLASLPDLLLVLILRGEERIIPNGNTVVLAGDKIVLSALSPE,-0.936
4,HMRMLSEGAQRMLRGLAVLEEASADRLLELHQGDYPGFVRSLFALESAGLFQRNGSGTWIRR,-0.819
5,HMEPVIELGDRTLPIEITRHRRARRLTLRLAADGSAVRITLPHWARSAEATAFAHARRDWLAAQLAK,0.0378
6,HMDNQSIVRINDGDGAWRQRLGEHFGHLPRDRKRGEIVLQVDAADWRWLQTQGYAPRFDAALSAQLQTTL,-0.404
7,HMRQSQEVSGGERYRRLTAYLDTHPFITRKEYSGITGLLKNKALNDLNLLVNKGYLEAMGRGSHKVYVRPM,-0.424
8,HMLRKTTDLDAIRSVAKDVIDQNPKAVEDYVGGKESAIGFLLGQVMRATKGTADANTVRELLKEILDS,0.311
9,HMVVTMEKIVVNDGGIRIDTYLADKLNISRSKVAKMLENNILVNNVKVKPSYKVTNNDIIEVEEYV,-0.936
10,HMLSRNEWLVMEALWERPSTLMELVRQLGQEPPGWAKSTTATMVRRMEEKGLIRHEAGSKARVYHP,-0.885
11,HMDFNDPTMEKSLVELPAMSNSTLRDLSENNIKKLEELAEMSVGELMDIASKISESDASALIMEARKPWF,-0.137
12,HMGELRAPLPGVIVSIPVKEGDEVKAGQAILIIEAMKMESEISSPIDAKVAKIVVKERVLVQEGDILIILE,-0.702
13,HMINDPSALGQRAFVDELLWMAGYVPEKIEIYQTLPNNSRVYRVKLDSVNGGFIFIRWDKKKKEHYV,0.114
14,HMYSSASKEEIDQLMKRLILNLDAKGYFWPQDKEKSLKLYLHNLFSKLPLNSSDIRFLHGLIRALSEE,-1.08
15,HMQDPVWVDWLGENDWFQKDPKRRGLANGYSEILRAEQPELVGRPFLDEVTRRVQADFPELFG,-0.335
16,HMDLLKANNLSQINVDKLTDEEILKYSQQLKQSGLTESQAEQIAIARGMPATEIAKLKQRLISLTNMQ,0.133
17,HMYQFFVDPGQIQGKRVTITGSDVNHIKNVLRMRIGEEIAVSNGKDGLEYRFGIDEILEDEVIGTLRFVKE,-0.968
18,HMFRMTPQRMAILAEVQNAERHLTAAEIYERVRRKYPTIAYGTVYRTLHLLAKHGLIQEFPFGDNASLFDR,0.0678
19,HMDDVGERIRKIREEKNLSLDEISKMTGFDVEFLAKIENKERQPQLGTVIKLSKALDSAFGRL,0.221
20,HMALKQADFDFIRQMIQQRAAIVLDDNKHYFVESRLGPVVEETGSKSLDQLIDQLRSSSNSLLQQKVTEAI,-0.199
21,HMSEMLPFDEARRQFERDYLVQLLKLTSGNVSQAARLARRNRTDFYALLGRHQLEPASFKPE,-0.298
22,HMSTKEFTIHAGEWSYRVSQKLENLGLVSDAKKFDQYLEDNGYSSKIKIGHYTISKDADFEEIAKEIT,0.0383
23,HMAKSKYETHVLPNLDKIIKWAKAGATAKEIAANLHIAYSTFRKYLDEGQEGDERYAALSAAFAQA,0.321
24,HMASLSITVNGETRRAAPGSIADLVRAIGLDPAKVAVERNGEIAPRSTLADVALADGDVLEIVHFVG,-0.0709
25,HMNIDGLIGKKALVTADIDNVNSKGQIKINGLEWTARSVDDEPIPMGTEVEITAISGVKAIVRKG,0.168
